# B1: recombinant Penaeus monodon fibrinogen-related protein (natural protein, UniProt A0A068LKH5 1-312, looked up)
# chain: TTERTDTAEPQQPGGCHALPSLLQSAGSSLTCIAASLINCQANENDQLSIAQDLRDTMSEVRRAIVDAERRRRRPRHCRDLQLDGDSESGVRRVFPFRSSPDAAATVYCDQETDGGGWTVFQRRLKLPVREDFYRTWVEYELGFGHMDGGEFWLGLDLVHRLTSTGLQEMRIDLTDYEDNAKWAKYGVFHLGDASTKYRLKVGRYNGTAGDGFGSGRHDGHPFTTHDNDNDGDGANCAARYRGAWWYDKCHISNLNGFPYEGDHESYADGIEWQPWRGYHYSLKTTTMMIRPAF
# notes: also called rPmFREP; PmFREP; source: insect cell expression system (baculovirus), purified (Ni-NTA)
# Experiments:
# [1] = molecular target: T1, rPmFREP CRD (Penaeus monodon, UniProt A0A068LKH5); assay: GlcNAc-resin affinity column, elution with free GlcNAc, anti-His Western blot; assay type: binding; conditions: 8 ml GlcNAc resin; eluted with 100 mM GlcNAc; proteins loaded at 5 µM each; immobilised ligand
# T1 construct: XEEL signal peptide, His6 tag; insect cells; lacks oligomeric structure
# [2] = molecular target: Penaeus monodon lipopolysaccharide and β-1,3-glucan binding protein (endogenous, hemolymph) (Penaeus monodon (endogenous in shrimp hemolymph))
# [3] = molecular target: recombinant Penaeus monodon lipopolysaccharide and β-1,3-glucan binding protein (Penaeus monodon) (UniProt H9MER4); assay: BLI; BLItz; rPmLGBP immobilised on Octet SA biosensor activated with EDC and NHS; analytes in 20 mM HEPES pH 7.5, 150 mM NaCl, 10 mM CaCl2; association 4 minutes, dissociation 4 minutes; curves globally fitted
# [4] = molecular target: T2, recombinant Penaeus monodon lipopolysaccharide and β-1,3-glucan binding protein (Penaeus monodon, UniProt H9MER4 1-366); assay: as above; conditions: both partners purified
# T2 construct: The construct holds the protein's own N-terminus (signal peptide); also called rPmLGBP; PmLGBP; source: insect cell expression system (Bac-to-Bac baculovirus), purified (Ni-NTA); not shown: His6, C-terminal, kept
# T2 sequence (looked up): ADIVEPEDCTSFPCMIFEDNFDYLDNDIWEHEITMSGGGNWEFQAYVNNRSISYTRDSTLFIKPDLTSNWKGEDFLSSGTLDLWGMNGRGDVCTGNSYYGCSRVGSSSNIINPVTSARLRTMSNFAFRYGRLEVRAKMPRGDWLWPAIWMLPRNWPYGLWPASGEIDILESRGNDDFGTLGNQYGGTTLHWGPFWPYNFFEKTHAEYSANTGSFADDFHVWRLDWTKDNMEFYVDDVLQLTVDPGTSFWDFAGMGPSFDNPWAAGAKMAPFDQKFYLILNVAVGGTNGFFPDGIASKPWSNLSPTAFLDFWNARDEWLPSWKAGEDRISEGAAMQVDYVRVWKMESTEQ
# [5] = molecular target: T2, recombinant Penaeus monodon …; assay: curdlan binding assay; rPmFREP and rPmLGBP, 0.1 µM each, incubated with 1 mg curdlan in 20 mM HEPES pH 7.5, 150 mM NaCl, 10 mM CaCl2, 4°C, 16 hours; curdlan collected by centrifugation, washed three times, eluted with 2% SDS; anti-His Western blot, densitometry of rPmFREP; conditions: both partners purified
Molecule,"GlcNAc-resin affinity column, elution with free GlcNAc, anti-His Western blot [1]","PO activity in hemolymph of shrimp injected with the recombinant protein (1 nmol/g shrimp) and then infected with VP AHPND, against rMBP-injected control shrimp [2]",Kd [3],Kd [4],fold more rPmFREP in the curdlan elution fraction with rPmLGBP than without it [5]
CC(=O)N[C@H]1C(O)O[C@H](CO)[C@@H](O)[C@@H]1O (stereo partly drawn) [N-acetylglucosamine],rPmFREP and rPmFREP CRD were bound to the GlcNAc column,–,–,–,–
rPmFREP CC-MBP (domain or fragment),–,3 fold,220 nM,–,–
B1,–,3.4 fold,–,340 nM,~3.1 fold
